Results reported in publication PMC8084935 (Nature chemical biology, 2021).
*: point of attachment. COSH = C-terminal thiocarboxylate, S*

Target: the molecule itself
Test: native MS

Binder | stoichiometry N
MtThiS-COSH (thiocarboxylated ThiS from Methanothermobacter sp. CaT2) (natural protein) MVIGMKFTVITDDGKKILESGAPRRIKDVLGELEIPIETVVVKKNGEIVIEEEEIFDGDIIEVIRVIYGG-{COSH} | 2

Target: MtYcaO (YcaO from Methanothermobacter sp. CaT2), MBP-His tag cut in the assay mixture (Methanothermobacter sp. CaT2)
Test: fluorescence polarisation

Binder | EC50 [µM]
MtTfuA-E67A (enzyme) MHGKKIIIFTGPSLSHTEASSILEAEYRPPVRRGDIQEAMKENPDIIGIIDGVFHQSPAVGHRAIIDAIRRGVKVVGGASMGALRASELSDLGMVGVGRIFRSYLEGEIESDDDVAVAFNPETLEPLSDSLVSIEFNLKRALRRGVIREDDFRKLMNTARNLFYPLRNYRRILHESGIPDDVKESLRSFLESEGRDLKREDALEVIRHIKRLAYTE | 4.9
MtTfuA-S83A (enzyme) MHGKKIIIFTGPSLSHTEASSILEAEYRPPVRRGDIQEAMKENPDIIGIIDGVFHQSPAVGHREIIDAIRRGVKVVGGAAMGALRASELSDLGMVGVGRIFRSYLEGEIESDDDVAVAFNPETLEPLSDSLVSIEFNLKRALRRGVIREDDFRKLMNTARNLFYPLRNYRRILHESGIPDDVKESLRSFLESEGRDLKREDALEVIRHIKRLAYTE | 4.1
MtTfuA-M84A (enzyme) MHGKKIIIFTGPSLSHTEASSILEAEYRPPVRRGDIQEAMKENPDIIGIIDGVFHQSPAVGHREIIDAIRRGVKVVGGASAGALRASELSDLGMVGVGRIFRSYLEGEIESDDDVAVAFNPETLEPLSDSLVSIEFNLKRALRRGVIREDDFRKLMNTARNLFYPLRNYRRILHESGIPDDVKESLRSFLESEGRDLKREDALEVIRHIKRLAYTE | 3.2
MtTfuA-L87A (enzyme) MHGKKIIIFTGPSLSHTEASSILEAEYRPPVRRGDIQEAMKENPDIIGIIDGVFHQSPAVGHREIIDAIRRGVKVVGGASMGAARASELSDLGMVGVGRIFRSYLEGEIESDDDVAVAFNPETLEPLSDSLVSIEFNLKRALRRGVIREDDFRKLMNTARNLFYPLRNYRRILHESGIPDDVKESLRSFLESEGRDLKREDALEVIRHIKRLAYTE | > 30
MtTfuA-R88A (enzyme) MHGKKIIIFTGPSLSHTEASSILEAEYRPPVRRGDIQEAMKENPDIIGIIDGVFHQSPAVGHREIIDAIRRGVKVVGGASMGALAASELSDLGMVGVGRIFRSYLEGEIESDDDVAVAFNPETLEPLSDSLVSIEFNLKRALRRGVIREDDFRKLMNTARNLFYPLRNYRRILHESGIPDDVKESLRSFLESEGRDLKREDALEVIRHIKRLAYTE | > 30
MtTfuA-E91D (enzyme) MHGKKIIIFTGPSLSHTEASSILEAEYRPPVRRGDIQEAMKENPDIIGIIDGVFHQSPAVGHREIIDAIRRGVKVVGGASMGALRASDLSDLGMVGVGRIFRSYLEGEIESDDDVAVAFNPETLEPLSDSLVSIEFNLKRALRRGVIREDDFRKLMNTARNLFYPLRNYRRILHESGIPDDVKESLRSFLESEGRDLKREDALEVIRHIKRLAYTE | 2.1
MtTfuA-E91Q (enzyme) MHGKKIIIFTGPSLSHTEASSILEAEYRPPVRRGDIQEAMKENPDIIGIIDGVFHQSPAVGHREIIDAIRRGVKVVGGASMGALRASQLSDLGMVGVGRIFRSYLEGEIESDDDVAVAFNPETLEPLSDSLVSIEFNLKRALRRGVIREDDFRKLMNTARNLFYPLRNYRRILHESGIPDDVKESLRSFLESEGRDLKREDALEVIRHIKRLAYTE | > 30
MtTfuA-Y107A (enzyme) MHGKKIIIFTGPSLSHTEASSILEAEYRPPVRRGDIQEAMKENPDIIGIIDGVFHQSPAVGHREIIDAIRRGVKVVGGASMGALRASELSDLGMVGVGRIFRSALEGEIESDDDVAVAFNPETLEPLSDSLVSIEFNLKRALRRGVIREDDFRKLMNTARNLFYPLRNYRRILHESGIPDDVKESLRSFLESEGRDLKREDALEVIRHIKRLAYTE | > 30
MtTfuA-D115A (enzyme) MHGKKIIIFTGPSLSHTEASSILEAEYRPPVRRGDIQEAMKENPDIIGIIDGVFHQSPAVGHREIIDAIRRGVKVVGGASMGALRASELSDLGMVGVGRIFRSYLEGEIESADDVAVAFNPETLEPLSDSLVSIEFNLKRALRRGVIREDDFRKLMNTARNLFYPLRNYRRILHESGIPDDVKESLRSFLESEGRDLKREDALEVIRHIKRLAYTE | > 30
MtTfuA-V118A (enzyme) MHGKKIIIFTGPSLSHTEASSILEAEYRPPVRRGDIQEAMKENPDIIGIIDGVFHQSPAVGHREIIDAIRRGVKVVGGASMGALRASELSDLGMVGVGRIFRSYLEGEIESDDDAAVAFNPETLEPLSDSLVSIEFNLKRALRRGVIREDDFRKLMNTARNLFYPLRNYRRILHESGIPDDVKESLRSFLESEGRDLKREDALEVIRHIKRLAYTE | > 30
MtTfuA-R170A (enzyme) MHGKKIIIFTGPSLSHTEASSILEAEYRPPVRRGDIQEAMKENPDIIGIIDGVFHQSPAVGHREIIDAIRRGVKVVGGASMGALRASELSDLGMVGVGRIFRSYLEGEIESDDDVAVAFNPETLEPLSDSLVSIEFNLKRALRRGVIREDDFRKLMNTARNLFYPLANYRRILHESGIPDDVKESLRSFLESEGRDLKREDALEVIRHIKRLAYTE | > 30
MtTfuA-D203A (enzyme) MHGKKIIIFTGPSLSHTEASSILEAEYRPPVRRGDIQEAMKENPDIIGIIDGVFHQSPAVGHREIIDAIRRGVKVVGGASMGALRASELSDLGMVGVGRIFRSYLEGEIESDDDVAVAFNPETLEPLSDSLVSIEFNLKRALRRGVIREDDFRKLMNTARNLFYPLRNYRRILHESGIPDDVKESLRSFLESEGRALKREDALEVIRHIKRLAYTE | 2.9
MtTfuA-K205M (enzyme) MHGKKIIIFTGPSLSHTEASSILEAEYRPPVRRGDIQEAMKENPDIIGIIDGVFHQSPAVGHREIIDAIRRGVKVVGGASMGALRASELSDLGMVGVGRIFRSYLEGEIESDDDVAVAFNPETLEPLSDSLVSIEFNLKRALRRGVIREDDFRKLMNTARNLFYPLRNYRRILHESGIPDDVKESLRSFLESEGRDLMREDALEVIRHIKRLAYTE | 1.1
MtTfuA-R206A (enzyme) MHGKKIIIFTGPSLSHTEASSILEAEYRPPVRRGDIQEAMKENPDIIGIIDGVFHQSPAVGHREIIDAIRRGVKVVGGASMGALRASELSDLGMVGVGRIFRSYLEGEIESDDDVAVAFNPETLEPLSDSLVSIEFNLKRALRRGVIREDDFRKLMNTARNLFYPLRNYRRILHESGIPDDVKESLRSFLESEGRDLKAEDALEVIRHIKRLAYTE | 3.1
MtTfuA-D208N (enzyme) MHGKKIIIFTGPSLSHTEASSILEAEYRPPVRRGDIQEAMKENPDIIGIIDGVFHQSPAVGHREIIDAIRRGVKVVGGASMGALRASELSDLGMVGVGRIFRSYLEGEIESDDDVAVAFNPETLEPLSDSLVSIEFNLKRALRRGVIREDDFRKLMNTARNLFYPLRNYRRILHESGIPDDVKESLRSFLESEGRDLKRENALEVIRHIKRLAYTE | 3.9
MtTfuA-S16A (enzyme) MHGKKIIIFTGPALSHTEASSILEAEYRPPVRRGDIQEAMKENPDIIGIIDGVFHQSPAVGHREIIDAIRRGVKVVGGASMGALRASELSDLGMVGVGRIFRSYLEGEIESDDDVAVAFNPETLEPLSDSLVSIEFNLKRALRRGVIREDDFRKLMNTARNLFYPLRNYRRILHESGIPDDVKESLRSFLESEGRDLKREDALEVIRHIKRLAYTE | 5.4
MtTfuA-D54A (enzyme) MHGKKIIIFTGPSLSHTEASSILEAEYRPPVRRGDIQEAMKENPDIIGIIAGVFHQSPAVGHREIIDAIRRGVKVVGGASMGALRASELSDLGMVGVGRIFRSYLEGEIESDDDVAVAFNPETLEPLSDSLVSIEFNLKRALRRGVIREDDFRKLMNTARNLFYPLRNYRRILHESGIPDDVKESLRSFLESEGRDLKREDALEVIRHIKRLAYTE | > 30
MtTfuA-F57A (enzyme) MHGKKIIIFTGPSLSHTEASSILEAEYRPPVRRGDIQEAMKENPDIIGIIDGVAHQSPAVGHREIIDAIRRGVKVVGGASMGALRASELSDLGMVGVGRIFRSYLEGEIESDDDVAVAFNPETLEPLSDSLVSIEFNLKRALRRGVIREDDFRKLMNTARNLFYPLRNYRRILHESGIPDDVKESLRSFLESEGRDLKREDALEVIRHIKRLAYTE | 3.8
MtTfuA-H65A (enzyme) MHGKKIIIFTGPSLSHTEASSILEAEYRPPVRRGDIQEAMKENPDIIGIIDGVFHQSPAVGAREIIDAIRRGVKVVGGASMGALRASELSDLGMVGVGRIFRSYLEGEIESDDDVAVAFNPETLEPLSDSLVSIEFNLKRALRRGVIREDDFRKLMNTARNLFYPLRNYRRILHESGIPDDVKESLRSFLESEGRDLKREDALEVIRHIKRLAYTE | > 30
